Patent US20150344570A1 (published 2015)

T1: FcγRIIb extracellular domain with C-terminal His tag (human, UniProt P31994 43-217)
T1 construct: extracellular domain; expressed in FreeStyle293 cells; analyte in Biacore; also called FcgRIIb; 2b
T1 sequence (looked up): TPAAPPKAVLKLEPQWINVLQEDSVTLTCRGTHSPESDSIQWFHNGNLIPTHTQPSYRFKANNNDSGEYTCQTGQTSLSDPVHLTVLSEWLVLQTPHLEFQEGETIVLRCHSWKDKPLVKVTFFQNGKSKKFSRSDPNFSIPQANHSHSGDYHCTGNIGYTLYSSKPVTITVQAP

T2: FcγRIIb extracellular domain with C-terminal His tag (human, UniProt P31994 43-217)
T2 construct: extracellular domain; soluble analyte in Biacore; also called FcgRIIb; not shown: His tag at the C terminus
T2 sequence (looked up): T1 sequence (looked up)

B1: GpH7-A5/GpH7-B3 variant D265_01G/GpL16-k0 (antibody, human IgG1, kappa)
heavy 1: not shown
heavy 2: not shown
light: DIVMTQSPLSLPVTPGEPASISCQASESLVHSNRNTYLHWYLQKPGQSPQLLIYKVSNRFSGVPDRFSGSGSGTDFTLKISRVEAEDVGVYYCSQNTHVPPTFGQGTKVEIERTVAAPSVFIFPPSDEQLKSGTASVVCLLNNFYPREAKVQWKVDNALQSGNSQESVTEQDSKDSTYSLSSTLTLSKADYEKHKVYACEVTHQGLSSPVTKSFNRGEC
notes: He Ab; IgG1, mutation in one H chain
B2: GpH7-A5/GpH7-B3 variant D270_01G/GpL16-k0 (antibody, human IgG1, kappa)
heavy 1: not shown
heavy 2: not shown
light: B1 light
notes: change in the GpH7-B3 H chain only; also called He Ab
B3: GpH7-A5/GpH7-B3 variant D270_05P/GpL16-k0 (antibody, human IgG1, kappa)
heavy 1: not shown
heavy 2: not shown
light: B1 light
notes: as for B2
B4: GpH7-A5/GpH7-B3 variant D265_18N/GpL16-k0 (antibody, human IgG1, kappa)
heavy 1: not shown
heavy 2: not shown
light: B1 light
notes: as for B1
B5: GpH7-A5/GpH7-B3 variant D265_14T/GpL16-k0 (antibody, human IgG1, kappa)
heavy 1: not shown
heavy 2: not shown
light: B1 light
notes: as for B1
B6: GpH7-A5/GpH7-B3 variant D270_11K/GpL16-k0 (antibody, human IgG1, kappa)
heavy 1: not shown
heavy 2: not shown
light: B1 light
notes: as for B2
B7: GpH7-A5/GpH7-B3 variant D265_15Y/GpL16-k0 (antibody, human IgG1, kappa)
heavy 1: not shown
heavy 2: not shown
light: B1 light
notes: as for B1
B8: GpH7-A5/GpH7-B3 variant D270_03V/GpL16-k0 (antibody, human IgG1, kappa)
heavy 1: not shown
heavy 2: not shown
light: B1 light
notes: as for B2
B9: GpH7-A5/GpH7-B3 variant D270_04F/GpL16-k0 (antibody, human IgG1, kappa)
heavy 1: not shown
heavy 2: not shown
light: B1 light
notes: as for B2
B10: GpH7-A5/GpH7-B3 variant D270_06M/GpL16-k0 (antibody, human IgG1, kappa)
heavy 1: not shown
heavy 2: not shown
light: B1 light
notes: as for B2
B11: GpH7-A5/GpH7-B3 variant D270_12R/GpL16-k0 (antibody, human IgG1, kappa)
heavy 1: not shown
heavy 2: not shown
light: B1 light
notes: as for B2
B12: GpH7-A5/GpH7-B3 variant V266_05P/GpL16-k0 (antibody, human IgG1, kappa)
heavy 1: not shown
heavy 2: not shown
light: B1 light
notes: as for B1
B13: GpH7-A5/GpH7-B3 variant V266_09D/GpL16-k0 (antibody, human IgG1, kappa)
heavy 1: not shown
heavy 2: not shown
light: B1 light
notes: as for B1
B14: GpH7-A5/GpH7-B3 variant D265_19Q/GpL16-k0 (antibody, human IgG1, kappa)
heavy 1: not shown
heavy 2: not shown
light: B1 light
notes: as for B1
B15: GpH7-A5/GpH7-B3 variant V266_01G/GpL16-k0 (antibody, human IgG1, kappa)
heavy 1: not shown
heavy 2: not shown
light: B1 light
notes: as for B1
B16: GpH7-A5/GpH7-B3 variant D265_08L/GpL16-k0 (antibody, human IgG1, kappa)
heavy 1: not shown
heavy 2: not shown
light: B1 light
notes: as for B1
B17: GpH7-A5/GpH7-B3 variant D265_02A/GpL16-k0 (antibody, human IgG1, kappa)
heavy 1: not shown
heavy 2: not shown
light: B1 light
notes: as for B1

Tests used:
[1] = target: T3, FcγRIa extracellular domain with C-terminal His tag (human, UniProt P12314 16-292); assay: SPR (Biacore); He/Con_1a divided by He/Con_2b (FcγRIIb as reference)
T3 construct: extracellular domain; expressed in FreeStyle293 cells; analyte in Biacore; also called FcgRI; 1a
T3 sequence (P12314 16-292): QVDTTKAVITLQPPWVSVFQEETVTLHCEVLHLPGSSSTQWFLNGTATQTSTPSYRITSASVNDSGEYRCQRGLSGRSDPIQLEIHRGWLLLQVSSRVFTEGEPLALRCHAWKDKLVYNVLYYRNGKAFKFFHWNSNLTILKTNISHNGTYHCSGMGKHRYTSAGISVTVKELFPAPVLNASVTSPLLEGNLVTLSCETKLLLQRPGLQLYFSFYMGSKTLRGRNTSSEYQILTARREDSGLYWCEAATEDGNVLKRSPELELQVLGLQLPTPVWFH

[2] = target: T3, FcγRIa extracellular domain with …; assay: SPR (Biacore), captured antibody, FcγR as analyte; relative binding
[3] = target: T1, FcγRIIb extracellular domain with …; assay: as above
[4] = target: T4, FcγRIa extracellular domain with C-terminal His tag (human, UniProt P12314 16-292); assay: SPR, binding relative to GpH7-A5/GpH7-B3/GpL16-k0 = 100
T4 construct: extracellular domain; soluble analyte in Biacore; also called FcgRI; not shown: His tag at the C terminus
T4 sequence (P12314 16-292): as above

[5] = target: T2, FcγRIIb extracellular domain with …; assay: as above
[6] = target: T4, FcγRIa extracellular domain with …; assay: SPR; He/Con_1a divided by He/Con_2b (FcγRIa against FcγRIIb)
Experimental: The heterodimerized antibodies He Abs in which one of the H chains was introduced with an alteration were assayed for their binding activities to each activating FcγR and inhibitory FcγR according to the method described in Example 4. […] The activating FcγRs in FIGS. 26, 27, 28, and 29 are FcγRIa, FcγRIIa (R), FcγRIIa (H), and FcγRIIIa, respectively.
Analysis of interaction between objective antibody and the FcγR was carried out using Biacore T100 (GE Healthcare). HBS-EP+ (GE Healthcare) was used as the running buffer, and the measurement temperature was set to 25° C. Chips produced by immobilizing the antigen peptide by the amine coupling method to a Series S Sencor Chip CM5 (GE Healthcare), or alternatively, chips produced by allowing preliminarily biotinylated antigen peptides to interact with and immobilize onto a Series S Sensor Chip SA (certified) (GE Healthcare) were used. Antibodies of interest were captured onto an antigen peptide-immobilized chip, and allowed to interact to each FcγR diluted with running buffer. To regenerate and repeatedly use the chip, the antibodies captured on the chip were washed off by reacting 10 mM glycine-HCl, pH 1.5.

Row | Binder | He_1a/2b (Ia/IIb) [1] [ratio] | He/Con_1a [2] | He/Con_2b [3] | He/Con_1a [4] | He/Con_2b [5] | He_1a/2b (Ia/IIb) [6] [ratio]
1 | B1 | 4.95 | 79.9 % of HeCon Ab (GpH7-A5/GpH7-B3/GpL16-k0 = 100) | 16.1 % of HeCon Ab (GpH7-A5/GpH7-B3/GpL16-k0 = 100) |  |  | 
2 | B2 |  |  |  | 76.3 % of control | 30.5 % of control | 2.5
3 | B3 |  |  |  | 67.1 % of control | 13.9 % of control | 4.81
4 | B4 | 4.52 | 27.7 % of HeCon Ab (GpH7-A5/GpH7-B3/GpL16-k0 = 100) | 6.1 % of HeCon Ab (GpH7-A5/GpH7-B3/GpL16-k0 = 100) |  |  | 
5 | B5 | 4.9 | 78.5 % of HeCon Ab (GpH7-A5/GpH7-B3/GpL16-k0 = 100) | 16 % of HeCon Ab (GpH7-A5/GpH7-B3/GpL16-k0 = 100) |  |  | 
6 | B6 |  |  |  | 58.4 % of control | 20.3 % of control | 2.88
7 | B7 | 73.5 | 44.3 % of HeCon Ab (GpH7-A5/GpH7-B3/GpL16-k0 = 100) | 0.6 % of HeCon Ab (GpH7-A5/GpH7-B3/GpL16-k0 = 100) |  |  | 
8 | B8 |  |  |  | 77.9 % of control | 39.5 % of control | 1.97
9 | B9 |  |  |  | 78.1 % of control | 53.1 % of control | 1.47
10 | B10 |  |  |  | 78.8 % of control | 48.2 % of control | 1.64
11 | B11 |  |  |  | 66.3 % of control | 18.3 % of control | 3.63
12 | B12 | 205 | 71.9 % of HeCon Ab (GpH7-A5/GpH7-B3/GpL16-k0 = 100) | 0.4 % of HeCon Ab (GpH7-A5/GpH7-B3/GpL16-k0 = 100) |  |  | 
13 | B13 | 7.88 | 79.3 % of HeCon Ab (GpH7-A5/GpH7-B3/GpL16-k0 = 100) | 10.1 % of HeCon Ab (GpH7-A5/GpH7-B3/GpL16-k0 = 100) |  |  | 
14 | B14 | 2.66 | 88.8 % of HeCon Ab (GpH7-A5/GpH7-B3/GpL16-k0 = 100) | 33.4 % of HeCon Ab (GpH7-A5/GpH7-B3/GpL16-k0 = 100) |  |  | 
15 | B15 | 1.77 | 91.3 % of HeCon Ab (GpH7-A5/GpH7-B3/GpL16-k0 = 100) | 51.5 % of HeCon Ab (GpH7-A5/GpH7-B3/GpL16-k0 = 100) |  |  | 
16 | B16 | 12.4 | 56.8 % of HeCon Ab (GpH7-A5/GpH7-B3/GpL16-k0 = 100) | 4.6 % of HeCon Ab (GpH7-A5/GpH7-B3/GpL16-k0 = 100) |  |  | 
17 | B17 | 4.25 | 84.5 % of HeCon Ab (GpH7-A5/GpH7-B3/GpL16-k0 = 100) | 19.9 % of HeCon Ab (GpH7-A5/GpH7-B3/GpL16-k0 = 100) |  |  | 
